The results in this text go back to patent US5273879, “Amplification method for polynucleotide assays” (Syntex (U.S.A.) Inc.).

The target in this data set is Klenow fragment DNA polymerase (UniProt P00582 P00582:324-928). Put plainly: primer extension, 7 mM MgCl2, 50 mM NaCl, 37 C. The settings on record: tags: Pharmacia Lot NM 92818; label: 5'-32P on 17 mer. As to the method:
The 120 mer (1 μg=25 pmoles) was incubated with a ten-fold molar excess (1.4 μg=250 pmoles) of 17 mer including all of the radioactively labeled 17 mer described above at 60° C. for 5 minutes and then slowly cooled over 30 minutes to 37° C. in a volume of 20.2 μl in 1.3×Klenow buffer (1×Klenow buffer is 7 mM Tris-HCl (pH 7.5), 7 mM MgCl_2, 50 mM NaCl). To this cooled reaction mix was added 2 μl of a solution of 0.4 mM dATP, dCTP, dGTP, dTTP (final conc.=32 μM of each dNTPs), 1.8 μl of 0.1M dithiothreitol (final conc.=[…]) and 7.2 units of Klenow polymerase (Pharmacia Lot #NM 92818) in a final concentration of 1×Klenow buffer. This reaction was incubated at 37° C. for 30 minutes. An additional 7.2 units of Klenow polymerase (1 μl volume) was added and the reaction was continued at 37° C. for one hour.
The reaction products were ethanol precipitated by the addition of 375 μl of 0.3M Na Acetate (pH 5.4) and 1.1 ml ethanol (−20° C.), followed by spinning at 15,000 g's for 30 minutes. The precipitated DNA was then resuspended in 25 μl of H_2O and reprecipitated with 1 ml of 100% ethanol (4° C.) and centrifugation as above. The supernatant was removed and the precipitated DNA pellet dried under vacuum.

Sequence of Klenow fragment DNA polymerase (P00582 324-928, one chain of several): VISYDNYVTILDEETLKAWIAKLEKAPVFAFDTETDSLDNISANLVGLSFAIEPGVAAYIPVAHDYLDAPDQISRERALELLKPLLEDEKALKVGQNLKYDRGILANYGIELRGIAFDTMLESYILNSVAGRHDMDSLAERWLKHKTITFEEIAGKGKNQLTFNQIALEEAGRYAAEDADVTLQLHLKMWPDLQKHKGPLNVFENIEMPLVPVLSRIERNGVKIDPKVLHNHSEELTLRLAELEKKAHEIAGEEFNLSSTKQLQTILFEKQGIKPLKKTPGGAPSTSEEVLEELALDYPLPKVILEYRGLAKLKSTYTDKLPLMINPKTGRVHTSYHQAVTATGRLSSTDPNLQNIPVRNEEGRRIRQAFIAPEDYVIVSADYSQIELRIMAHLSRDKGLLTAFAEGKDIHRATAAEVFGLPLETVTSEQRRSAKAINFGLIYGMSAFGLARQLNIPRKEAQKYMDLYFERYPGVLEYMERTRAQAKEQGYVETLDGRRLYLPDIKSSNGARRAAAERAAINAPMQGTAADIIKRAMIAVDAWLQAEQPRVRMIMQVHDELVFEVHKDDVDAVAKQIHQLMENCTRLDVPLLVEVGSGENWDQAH

B1: 120 mer repeating template / 17 mer primer, extended (dsDNA)
DNA 1: CGGGGAATTCTTTAAATATTCCTTTAAACCTACCTTTAAACCTACCTTTAAACCTACCTTTAAACCTACCTTTAAACCTACCTTTAAACCTACCTTTAAATATTCCGAATTCACTGGCCG
DNA 2: CGGCCAGTGAATTCGGA
Turning to B1, the binding result is “binds”.
